Experimental data from patent US20220235136A1 (YALE UNIVERSITY, published 2022).

T1: human CD93 on cells (CD93-transfected HEK293T cells; endogenous on HUVEC cells) (human, UniProt Q9NPY3 22-652)
T1 construct: in the co-immunoprecipitation it comes from HUVEC lysate; also called CD93 transfectant; CD93+ 293 cells
T1 sequence: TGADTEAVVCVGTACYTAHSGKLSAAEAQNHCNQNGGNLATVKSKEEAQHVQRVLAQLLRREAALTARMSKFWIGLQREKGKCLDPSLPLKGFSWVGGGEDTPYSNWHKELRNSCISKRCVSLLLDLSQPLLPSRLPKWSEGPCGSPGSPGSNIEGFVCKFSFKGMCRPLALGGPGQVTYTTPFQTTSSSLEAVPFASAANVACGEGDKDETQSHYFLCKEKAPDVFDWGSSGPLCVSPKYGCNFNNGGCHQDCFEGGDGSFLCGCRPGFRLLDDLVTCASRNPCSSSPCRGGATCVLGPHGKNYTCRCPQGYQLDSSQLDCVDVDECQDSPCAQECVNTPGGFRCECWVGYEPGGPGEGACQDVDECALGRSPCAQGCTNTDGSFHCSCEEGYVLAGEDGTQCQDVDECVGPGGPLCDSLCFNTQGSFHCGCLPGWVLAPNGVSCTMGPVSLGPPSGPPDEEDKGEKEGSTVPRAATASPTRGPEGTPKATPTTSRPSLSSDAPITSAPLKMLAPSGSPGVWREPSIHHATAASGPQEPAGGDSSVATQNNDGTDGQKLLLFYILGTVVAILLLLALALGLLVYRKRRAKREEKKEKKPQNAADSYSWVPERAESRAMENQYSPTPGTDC

T2: IGFBP7 protein (R&D Systems), labelled with a His-Tag Labeling Kit for MST (human, UniProt Q16270 27-282, RED-tris-NTA fluorescent dye bound to the His tag)
T2 construct: Bought; also called human IGFBP7; not shown: His tag implied by the His-Tag Labeling Kit
T2 sequence: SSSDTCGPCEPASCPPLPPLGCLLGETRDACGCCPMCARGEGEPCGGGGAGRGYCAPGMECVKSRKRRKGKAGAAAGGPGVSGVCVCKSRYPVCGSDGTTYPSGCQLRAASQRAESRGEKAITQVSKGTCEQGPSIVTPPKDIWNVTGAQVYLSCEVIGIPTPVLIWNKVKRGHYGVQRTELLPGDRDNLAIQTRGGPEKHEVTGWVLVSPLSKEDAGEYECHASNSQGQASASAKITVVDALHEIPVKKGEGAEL

B1: Human IGFBP7 (Fc-tag), Sino Biological (Fc fusion)
chain: T2 sequence
notes: Bought; also called IGFBP7-Ig; recombinant IGFBP7 protein; not shown: Fc tag of the bought fusion protein
B2: WISP1 (Fc fusion, human, UniProt O95388 23-367, looked up)
fusion chain: TALSPAPTTMDFTPAPLEDTSSRPQFCKWPCECPPSPPRCPLGVSLITDGCECCKMCAQQLGDNCTEAAICDPHRGLYCDYSGDRPRYAIGVCAQVVGVGCVLDGVRYNNGQSFQPNCKYNCTCIDGAVGCTPLCLRVRPPRLWCPHPRRVSIPGHCCEQWVCEDDAKRPRKTAPRDTGAFDAVGEVEAWHRNCIAYTSPWSPCSTSCGLGVSTRISNVNAQCWPEQESRLCNLRPCDVDIHTLIKAGKKCLAVYQPEASMNFTLAGCISTRSYQPKYCGVCMDNRCCIPYKSKTIDVSFQCPDGLGFSRQVLWINACFCNLSCRNPNDIFADLESYPDFSEIAN
notes: member of the group m19; HEK293T supernatant
B3: ESM1 (Fc fusion, human, UniProt Q9NQ30 20-184, looked up)
fusion chain: WSNNYAVDCPQHCDSSECKSSPRCKRTVLDDCGCCRVCAAGRGETCYRTVSGMDGMKCGPGLRCQPSNGEDPFGEEFGICKDCPYGTFGMDCRETCNCQSGICDRGTGKCLKFPFFQYSVTKSSNRFVSLTEHDMASGDGNIVREEVVKENAAGSPVMRKWLNPR
notes: as for B2
B4: KAZALD1 (Fc fusion, human, UniProt Q96I82 31-304, looked up)
fusion chain: RPSPGPDYLRRGWMRLLAEGEGCAPCRPEECAAPRGCLAGRVRDACGCCWECANLEGQLCDLDPSAHFYGHCGEQLECRLDTGGDLSRGEVPEPLCACRSQSPLCGSDGHTYSQICRLQEAARARPDANLTVAHPGPCESGPQIVSHPYDTWNVTGQDVIFGCEVFAYPMASIEWRKDGLDIQLPGDDPHISVQFRGGPQRFEVTGWLQIQAVRPSDEGTYRCLGRNALGQVEAPASLTVLTPDQLNSTGIPQLRSLNLVPEEEAESEENDDYY
notes: as for B2
B5: CTGF (Fc fusion, human, UniProt P29279 27-349, looked up)
fusion chain: QNCSGPCRCPDEPAPRCPAGVSLVLDGCGCCRVCAKQLGELCTERDPCDPHKGLFCHFGSPANRKIGVCTAKDGAPCIFGGTVYRSGESFQSSCKYQCTCLDGAVGCMPLCSMDVRLPSPDCPFPRRVKLPGKCCEEWVCDEPKDQTVVGPALAAYRLEDTFGPDPTMIRANCLVQTTEWSACSKTCGMGISTRVTNDNASCRLEKQSRLCMVRPCEADLEENIKKGKKCIRTPKISKPIKFELSGCTSMKTYRAKFCGVCTDGRCCTPHRTTTLPVEFKCPDGEVMKKNMMFIKTCACHYNCPGDNDIFESLYYRKMYGDMA
notes: as for B2
B6: IGFBP2 (Fc fusion, human, UniProt P18065 36-325, looked up)
fusion chain: AEVLFRCPPCTPERLAACGPPPVAPPAAVAAVAGGARMPCAELVREPGCGCCSVCARLEGEACGVYTPRCGQGLRCYPHPGSELPLQALVMGEGTCEKRRDAEYGASPEQVADNGDDHSEGGLVENHVDSTMNMLGGGGSAGRKPLKSGMKELAVFREKVTEQHRQMGKGGKHHLGLEEPKKLRPPPARTPCQQELDQVLERISTMRLPDERGPLEHLYSLHIPNCDKHGLYNLKQCKMSLNGQRGECWCVNPNTGKLIQGAPTIRGDPECHLFYNEQQEARGVHTQRMQ
notes: as for B2
B7: IGFBP6 (Fc fusion, human, UniProt P24592 28-240, looked up)
fusion chain: RCPGCGQGVQAGCPGGCVEEEDGGSPAEGCAEAEGCLRREGQECGVYTPNCAPGLQCHPPKDDEAPLRALLLGRGRCLPARAPAVAEENPKESKPQAGTARPQDVNRRDQQRNPGTSTTPSQPNSAGVQDTEMGPCRRHLDSVLQQLQTEVYRGAQTLYVPNCDHRGFYRKRQCRSSQGQRRGPCWCVDRMGKSLPGSPDGNGSSSCPTGSSG
notes: as for B2
B8: CYR61 (Fc fusion, human, UniProt O00622 25-381, looked up)
fusion chain: TCPAACHCPLEAPKCAPGVGLVRDGCGCCKVCAKQLNEDCSKTQPCDHTKGLECNFGASSTALKGICRAQSEGRPCEYNSRIYQNGESFQPNCKHQCTCIDGAVGCIPLCPQELSLPNLGCPNPRLVKVTGQCCEEWVCDEDSIKDPMEDQDGLLGKELGFDASEVELTRNNELIAVGKGSSLKRLPVFGMEPRILYNPLQGQKCIVQTTSWSQCSKTCGTGISTRVTNDNPECRLVKETRICEVRPCGQPVYSSLKKGKKCSKTKKSPEPVRFTYAGCLSVKKYRPKYCGSCVDGRCCTPQLTRTVKMRFRCEDGETFSKNVMMIQSCKCNYNCPHANEAAFPFYRLFNDIHKFRD
notes: as for B2
B9: WISP3 (Fc fusion, human, UniProt O95389 24-354, looked up)
fusion chain: TGPLDTTPEGRPGEVSDAPQRKQFCHWPCKCPQQKPRCPPGVSLVRDGCGCCKICAKQPGEICNEADLCDPHKGLYCDYSVDRPRYETGVCAYLVAVGCEFNQVHYHNGQVFQPNPLFSCLCVSGAIGCTPLFIPKLAGSHCSGAKGGKKSDQSNCSLEPLLQQLSTSYKTMPAYRNLPLIWKKKCLVQATKWTPCSRTCGMGISNRVTNENSNCEMRKEKRLCYIQPCDSNILKTIKIPKGKTCQPTFQLSKAEKFVFSGCSSTQSYKPTFCGICLDKRCCIPNKSKMITIQFDCPNEGSFKWKMLWITSCVCQRNCREPGDIFSELKIL
notes: as for B2
B10: IGFBP1 (Fc fusion, human, UniProt P08833 26-259, looked up)
fusion chain: APWQCAPCSAEKLALCPPVSASCSEVTRSAGCGCCPMCALPLGAACGVATARCARGLSCRALPGEQQPLHALTRGQGACVQESDASAPHAAEAGSPESPESTEITEEELLDNFHLMAPSEEDHSILWDAISTYDGSKALHVTNIKKWKEPCRIELYRVVESLAKAQETSGEEISKFYLPNCNKNGFYHSRQCETSMDGEAGLCWCVYPWNGKRIPGSPEIRGDPNCQIYFNVQN
notes: as for B2
B11: NOV (Fc fusion, not shown: a dimerising Fc or GST; small tags and cut ends)
chain: TQRCPPQCPGRCPATPPTCAPGVRAVLDGCSCCLVCARQRGESCSDLEPCDESSGLYCDRSADPSNQTGICTAVEGDNCVFDGVIYRSGEKFQPSCKFQCTCRDGQIGCVPRCQLDVLLPEPNCPAPRKVEVPGECCEKWICGPDEEDSLGGLTLAAYRPEATLGVEVSDSSVNCIEQTTEWTACSKSCGMGFSTRVTNRNRQCEMLKQTRLCMVRPCEQEPEQPTDKKGKKCLRTKKSLKAIHLQFKNCTSLHTYKPRFCGVCSDGRCCTPHNTKTIQAEFQCSPGQIVKKPVMVIGTCTCHTNCPKNNEAFLQELELKTTRGKM
notes: as for B2
B12: IGFBP4 (Fc fusion, human, UniProt P22692 22-258, looked up)
fusion chain: DEAIHCPPCSEEKLARCRPPVGCEELVREPGCGCCATCALGLGMPCGVYTPRCGSGLRCYPPRGVEKPLHTLMHGQGVCMELAEIEAIQESLQPSDKDEGDHPNNSFSPCSAHDRRCLQKHFAKIRDRSTSGGKMKVNGAPREDARPVPQGSCQSELHRALERLAASQSRTHEDLYIIPIPNCDRNGNFHPKQCHPALDGQRGKCWCVDRKTGVKLPGGLEPKGELDCHQLADSFRE
notes: as for B2
B13: recombinant human CD93 protein (R&D Systems) (receptor)
chain: ADTEAVVCVGTACYTAHSGKLSAAEAQNHCNQNGGNLATVKSKEEAQHVQRVLAQLLRREAALTARMSKFWIGLQREKGKCLDPSLPLKGFSWVGGGEDTPYSNWHKELRNSCISKRCVSLLLDLSQPLLPSRLPKWSEGPCGSPGSPGSNIEGFVCKFSFKGMCRPLALGGPGQVTYTTPFQTTSSSLEAVPFASAANVACGEGDKDETQSHYFLCKEKAPDVFDWGSSGPLCVSPKYGCNFNNGGCHQDCFEGGDGSFLCGCRPGFRLLDDLVTCASRNPCSSSPCRGGATCVLGPHGKNYTCRCPQGYQLDSSQLDCVDVDECQDSPCAQECVNTPGGFRCECWVGYEPGGPGEGACQDVDECALGRSPCAQGCTNTDGSFHCSCEEGYVLAGEDGTQCQDVDECVGPGGPLCDSLCFNTQGSFHCGCLPGWVLAPNGVSCTMGPVSLGPPSGPPDEEDKGEKEGSTVPRAATASPTRGPEGTPKATPTTSRPSLSSDAPITSAPLKMLAPSGSPGVWREPSIHHATAASGPQEPAGGDSSVATQNNDGTDGQK
notes: Bought soluble protein
B14: IGFBP7 fused to a C-terminal Ig (made in transfected HEK293T cells, used as supernatant) (Fc fusion, not shown: a dimerising Fc or GST; small tags and cut ends)
chain: T2 sequence
notes: also called Fc tagged fusion protein of IGFBP7

Molecular target: T1, human CD93 on cells (CD93-transfected …)
Assay: flow cytometry, IGFBP7-Ig on CD93-transduced or control HEK293T cells

Row | binding result | Binder
1 | binds | B1

Molecular target: T1, human CD93 on cells (CD93-transfected …)
Assay: flow cytometry, HEK293T supernatant of the Fc-tagged protein on CD93 transfectant; binding index = MFI of CD93 transfectant / MFI of control cells

Row | binding result | Binder
2 | no binding | B2
3 | no binding | B3
4 | no binding | B4
5 | no binding | B5
6 | no binding | B6
7 | no binding | B7
8 | no binding | B8
9 | no binding | B9
10 | no binding | B10
11 | no binding | B11
12 | no binding | B12

Molecular target: T2, IGFBP7 protein (R&D Systems), labelled …
Assay: microscale thermophoresis (MST), CD93 titrated against 10 nM labelled IGFBP7

Row | EC50 (read off the curve) [nM] | Binder
13 | ~50 | B13

Molecular target: T1, human CD93 on cells (CD93-transfected …)
Assay: flow cytometry, HEK293T supernatant on CD93 transfectant; binding index = MFI of CD93 transfectant / MFI of control

Row | binding result | Binder
14 | binds | B14
